According to patent JP2013532970A, “追加のジスルフィド結合を含有するヒトインスリン” (ノヴォ ノルディスク アー/エス, priority 2010, dated 2011):

Experiment: Thioflavin T (ThT) fibrillation assay
Assay type: physicochemical
Conditions: 7 mM sodium phosphate pH 7.4, 1 μM ThT, 37℃, orbital shaking 960 rpm

## A10C, B4C, desB30ヒトインスリン [実施例4]
45 h
  Fibrillation within the 45-hour experiment (ThT fluorescence): 細線維化しなかった

## ヒトインスリン: Human insulin hormone (prior art), 21-residue A chain and 30-residue B chain; used as the reference
  ThT fibrillation lag time: < 2 時間
